Source: patent publication US20250296975A1

Target: His-tagged T-cell immunoreceptor with Ig and ITIM domains (TIGIT) (UniProt Q495A1)
Experiment: biolayer interferometry, His-tagged TIGIT

B1: anti-TIGIT antibody TIG1 (antibody, from another filing, V domains shown)
VH: DVQLVESGGGLVQPGGSRKLSCAASGFTFSNFGMHWVRQAPEKGLEWVAFISSGSSSIYYADTVKGRFTISRDNPKNTLFLQMTSLRSEDTAMYYCARMRLDYYAMDYWGQGTSVTVSS
VL: DVQITQSPSYLAASPGETITINCRASKSISKYLAWYQEKPGKTNKLLIYSGSTLQSGIPSRFSGSGSGTDFTLTISSLEPEDFAMYYCQQHNEYPWTFGGGTKLEIK
Question: For B1, which Kd is on record?
Answer: 3.12 nM
